# B1: ScFv-58F (scFv, not shown: large carriers)
# scFv: DILMTQSPAIMSASPGEKVTMTCRASSSVSSSYLHWYQQKSGASPKLWIYSTSNLASGVPARFSGSGSGTSYSLTISSVEAEDAATYYCQQYSGYPWTSGGGTKLEIKRSGGSTSGSGKPGSGEGSSSTEVKVEESGGGLVQPGGSMKLSCVASGFTFSNYWMNWVRQSPEKGLEWVAEIRLKSNNYATHYAESVKGRFTISRDDSESSVYLQMNNLRAEDTGIYYCTRRNGPSSRAMDYWGQGTTVTVSS
# notes: Yeast two-hybrid prey from mouse naive SPLINT ScFv library; also called ScFv-58 intrabody
# B2: VH-12A (VHH, not shown: large carriers)
# VHH: QVQLQQSGAELVKPGASVKLSCTASGFNIKDTYMHWVKQRPEQGLEWIGRIDPANGNTKYDPKFQGKATITADTSSNTAYLQLSSLTSEDTAVYYCASLLWWGQGTLVTVSA
# notes: Single mouse VH domain split from ScFv-12A, as yeast two-hybrid prey; also called VH-12X
# Key:
# Experiment in all cases: yeast two-hybrid (IACT), VP16 prey vs LexA bait, secondary screening
# [1] = target: T1, LexA-HistoneH3-Gcn5mut-HA
# T1 construct: Control bait; H3 not acetylated; also called LexA-H3-Gcn5mut-HA
# LexA-Gcn5wt-HA = target: T2, LexA-Gcn5wt-HA
# T2 construct: Control bait without H3
# LexA-Gcn5mut-HA = target: T3, LexA-Gcn5mut-HA
# T3 construct: Control bait without H3
# LexA-Integrase-p300wt-HA = target: T4, LexA-Integrase-p300wt-HA (Integrase constitutively acetylated in cis by the fused p300 wt HAT; positions not stated)
# T4 construct: Tethered catalysis bait expressed in L40 yeast from pMICBD1; also called IN-HATwt-HA; screening bait
# T4 chain: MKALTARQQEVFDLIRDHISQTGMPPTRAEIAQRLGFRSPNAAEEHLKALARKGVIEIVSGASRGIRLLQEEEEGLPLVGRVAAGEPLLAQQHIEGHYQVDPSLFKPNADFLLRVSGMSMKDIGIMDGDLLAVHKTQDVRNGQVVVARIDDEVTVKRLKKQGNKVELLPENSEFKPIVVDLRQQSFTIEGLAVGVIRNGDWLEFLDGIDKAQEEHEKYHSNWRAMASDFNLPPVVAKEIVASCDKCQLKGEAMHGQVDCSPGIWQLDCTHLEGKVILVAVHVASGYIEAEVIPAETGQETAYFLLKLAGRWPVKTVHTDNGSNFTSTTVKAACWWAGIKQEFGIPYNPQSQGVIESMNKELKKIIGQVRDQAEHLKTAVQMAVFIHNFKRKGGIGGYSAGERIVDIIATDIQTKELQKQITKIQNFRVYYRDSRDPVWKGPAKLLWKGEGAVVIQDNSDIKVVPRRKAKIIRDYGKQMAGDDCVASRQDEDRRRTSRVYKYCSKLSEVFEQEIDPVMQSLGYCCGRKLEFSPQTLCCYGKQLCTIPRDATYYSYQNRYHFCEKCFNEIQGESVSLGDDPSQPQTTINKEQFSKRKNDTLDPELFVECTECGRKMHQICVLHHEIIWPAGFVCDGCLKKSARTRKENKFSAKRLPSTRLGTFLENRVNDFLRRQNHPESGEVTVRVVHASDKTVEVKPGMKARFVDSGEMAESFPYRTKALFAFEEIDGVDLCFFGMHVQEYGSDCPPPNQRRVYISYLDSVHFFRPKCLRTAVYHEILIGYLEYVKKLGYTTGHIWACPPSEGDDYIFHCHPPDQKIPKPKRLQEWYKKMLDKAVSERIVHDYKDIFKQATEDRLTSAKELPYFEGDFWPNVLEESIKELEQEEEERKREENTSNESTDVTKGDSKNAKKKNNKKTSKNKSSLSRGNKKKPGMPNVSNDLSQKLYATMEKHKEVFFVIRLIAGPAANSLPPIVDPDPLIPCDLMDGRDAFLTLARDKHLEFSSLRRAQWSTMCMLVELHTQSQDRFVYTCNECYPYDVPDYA
# LexA-IN = target: T5, LexA-IN
# T5 construct: Non-acetylated Integrase bait; also called LexA-Integrase; IN-stop (non-acetylated)
# T5 chain: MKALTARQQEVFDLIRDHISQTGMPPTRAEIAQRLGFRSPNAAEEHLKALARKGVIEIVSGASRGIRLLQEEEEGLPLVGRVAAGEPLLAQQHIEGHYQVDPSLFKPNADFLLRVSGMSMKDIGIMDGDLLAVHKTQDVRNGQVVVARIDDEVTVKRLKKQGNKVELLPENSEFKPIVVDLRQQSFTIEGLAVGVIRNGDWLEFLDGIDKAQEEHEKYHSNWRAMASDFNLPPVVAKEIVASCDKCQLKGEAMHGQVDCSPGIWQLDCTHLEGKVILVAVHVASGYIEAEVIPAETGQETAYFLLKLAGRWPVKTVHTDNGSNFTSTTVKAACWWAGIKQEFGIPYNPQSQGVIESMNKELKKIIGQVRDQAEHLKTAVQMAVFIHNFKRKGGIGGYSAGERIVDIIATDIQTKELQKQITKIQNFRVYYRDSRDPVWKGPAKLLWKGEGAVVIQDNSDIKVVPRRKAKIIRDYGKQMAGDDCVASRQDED
Binder,binding result [1],binding result (LexA-Gcn5wt-HA),binding result (LexA-Gcn5mut-HA),binding result (LexA-Integrase-p300wt-HA),binding result (LexA-IN)
B1,no binding,no binding,no binding,–,–
B2,–,–,–,binds,binds

# From patent US20190361013A1 (SCUOLA NORMALE SUPERIORE, published 2019)
